Measured values as given in FireProtDB (doi:10.1021/bi980431i).

Details: Homo sapiens; pH 2.7; Thermal; DSC; glycine 0.05 M; reversible: yes; whole UniProt chain shown

B1: Lysozyme C wild type, P61626 (protein)
chain: MKALIVLGLVLLSVTVQGKVFERCELARTLKRLGMDGYRGISLANWMCLAKWESGYNTRATNYNAGDRSTDYGIFQINSRYWCNDGKTPGAVNACHLSCSALLQDNIADAVACAKRVVRDPQGIRAWVAWRNRCQNRDVRQYVQGCGV
Tm: 64.9 °C
heat capacity change of unfolding: 1.58 kcal/mol/K
unfolding enthalpy (calorimetric): 114 kcal/mol
unfolding enthalpy (van 't Hoff): 120 kcal/mol
